Measurements: the supplement of paper PMC9112550, “Optimization of the antimicrobial peptide Bac7 by deep mutational scanning” (BMC Biology, 2022)

System: Escherichia coli TOP10
Experiment: shrunken log2 fold change of peptide-encoding DNA abundance (4.5 h post-induction vs induction); higher = less antimicrobial activity (less host growth inhibition)
Conditions: time post-induction: 4.5 h; library: site-saturation at positions 5, 18, 19, 20
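Also: peptides expressed intracellularly from a pBAD plasmid library in pooled LB shake-flask culture, induced with 0.3% L-arabinose, DNA abundance read by NGS, three biological replicates, DESeq2 with apeglm shrinkage.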

Sequence	shrunken log2 fold change
RRIRQRPPRLPRPRPRPPIIPRP	-0.0647
RRIRQRPPRLPRPRPRPPLIPRP	0.0445
RRIRQRPPRLPRPRPRPPMPPRP	0.237
RRIRQRPPRLPRPRPRPPNHPRP	-0.157
RRIRQRPPRLPRPRPRPPPQPRP	0.712
RRIRQRPPRLPRPRPRPPPRPRP	1.25
RRIRQRPPRLPRPRPRPPRLPRP	0.287
RRIRQRPPRLPRPRPRPPSCPRP	0.348
RRIRQRPPRLPRPRPRPPSHPRP	0.0871
RRIRQRPPRLPRPRPRPPTEPRP	-0.153
RRIRQRPPRLPRPRPRPPTKPRP	0.209
RRIRQRPPRLPRPRPRPPTQPRP	0.0976
RRIRQRPPRLPRPRPRPPTVPRP	-0.225
RRIRQRPPRLPRPRPRPPTWPRP	-0.0557
RRIRQRPPRLPRPRPRPPVNPRP	-0.0759
RRIRQRPPRLPRPRPRPPYIPRP	-0.449
RRIRQRPPRLPRPRPRPQCCPRP	-0.0133
RRIRQRPPRLPRPRPRPQCQPRP	0.05
RRIRQRPPRLPRPRPRPQDAPRP	-0.253
RRIRQRPPRLPRPRPRPQEQPRP	-0.000777
RRIRQRPPRLPRPRPRPQFFPRP	-0.122
RRIRQRPPRLPRPRPRPQGHPRP	-0.017
RRIRQRPPRLPRPRPRPQGNPRP	0.00341
RRIRQRPPRLPRPRPRPQIWPRP	0.0984
RRIRQRPPRLPRPRPRPQIYPRP	0.0392

Sequence	shrunken log2 fold change
RRIRQRPPRLPRPRPRPQNCPRP	0.0179
RRIRQRPPRLPRPRPRPQNMPRP	-0.506
RRIRQRPPRLPRPRPRPQPMPRP	0.348
RRIRQRPPRLPRPRPRPQPYPRP	-0.0274
RRIRQRPPRLPRPRPRPQQVPRP	-0.0545
RRIRQRPPRLPRPRPRPQRNPRP	-0.23
RRIRQRPPRLPRPRPRPQTHPRP	-0.293
RRIRQRPPRLPRPRPRPQTVPRP	-0.0925
RRIRQRPPRLPRPRPRPQTWPRP	0.126
RRIRQRPPRLPRPRPRPQVLPRP	0.00177
RRIRQRPPRLPRPRPRPQVTPRP	-0.00931
RRIRQRPPRLPRPRPRPQYDPRP	-0.081
RRIRQRPPRLPRPRPRPRADPRP	0.156
RRIRQRPPRLPRPRPRPRANPRP	0.367
RRIRQRPPRLPRPRPRPRDMPRP	-0.046
RRIRQRPPRLPRPRPRPRGYPRP	-0.00234
RRIRQRPPRLPRPRPRPRHWPRP	0.218
RRIRQRPPRLPRPRPRPRILPRP	-0.275
RRIRQRPPRLPRPRPRPRLNPRP	-0.111
RRIRQRPPRLPRPRPRPRMDPRP	-0.0734
RRIRQRPPRLPRPRPRPRMMPRP	-0.161
RRIRQRPPRLPRPRPRPRMPPRP	0.216
RRIRQRPPRLPRPRPRPRNVPRP	-0.0777
RRIRQRPPRLPRPRPRPRRAPRP	0.79
RRIRQRPPRLPRPRPRPRSHPRP	0.183

Sequence	shrunken log2 fold change
RRIRQRPPRLPRPRPRPRTPPRP	0.676
RRIRQRPPRLPRPRPRPRVGPRP	0.71
RRIRQRPPRLPRPRPRPRYDPRP	-0.0523
RRIRQRPPRLPRPRPRPSACPRP	0.42
RRIRQRPPRLPRPRPRPSAMPRP	0.218
RRIRQRPPRLPRPRPRPSAYPRP	-0.247
RRIRQRPPRLPRPRPRPSCGPRP	0.117
RRIRQRPPRLPRPRPRPSCLPRP	-0.0903
RRIRQRPPRLPRPRPRPSDQPRP	0.152
RRIRQRPPRLPRPRPRPSEFPRP	-0.0736
RRIRQRPPRLPRPRPRPSGIPRP	0.144
RRIRQRPPRLPRPRPRPSHDPRP	-0.104
RRIRQRPPRLPRPRPRPSHYPRP	-0.224
RRIRQRPPRLPRPRPRPSIEPRP	-0.373
RRIRQRPPRLPRPRPRPSKDPRP	-0.462
RRIRQRPPRLPRPRPRPSKQPRP	-0.0831
RRIRQRPPRLPRPRPRPSMWPRP	0.0422
RRIRQRPPRLPRPRPRPSNAPRP	-0.198
RRIRQRPPRLPRPRPRPSNIPRP	-0.286
RRIRQRPPRLPRPRPRPSPFPRP	0.0122
RRIRQRPPRLPRPRPRPSRCPRP	-0.177
RRIRQRPPRLPRPRPRPSRFPRP	3.97
RRIRQRPPRLPRPRPRPSRYPRP	-0.00452
RRIRQRPPRLPRPRPRPSSFPRP	-0.308
RRIRQRPPRLPRPRPRPSSGPRP	-0.0384

Sequence	shrunken log2 fold change
RRIRQRPPRLPRPRPRPSTNPRP	-0.364
RRIRQRPPRLPRPRPRPSTPPRP	-0.311
RRIRQRPPRLPRPRPRPSTTPRP	-0.572
RRIRQRPPRLPRPRPRPSVWPRP	0.128
RRIRQRPPRLPRPRPRPSYEPRP	0.0509
RRIRQRPPRLPRPRPRPSYFPRP	-0.515
RRIRQRPPRLPRPRPRPSYLPRP	-0.482
RRIRQRPPRLPRPRPRPSYWPRP	-0.0858
RRIRQRPPRLPRPRPRPTCIPRP	-0.0736
RRIRQRPPRLPRPRPRPTDPPRP	0.107
RRIRQRPPRLPRPRPRPTDVPRP	-0.194
RRIRQRPPRLPRPRPRPTEAPRP	-0.0735
RRIRQRPPRLPRPRPRPTEPPRP	0.00378
RRIRQRPPRLPRPRPRPTERPRP	0.313
RRIRQRPPRLPRPRPRPTFWPRP	2.04
RRIRQRPPRLPRPRPRPTGDPRP	0.349
RRIRQRPPRLPRPRPRPTGTPRP	0.285
RRIRQRPPRLPRPRPRPTKEPRP	0.0425
RRIRQRPPRLPRPRPRPTLNPRP	0.0729
RRIRQRPPRLPRPRPRPTLYPRP	-0.0318
RRIRQRPPRLPRPRPRPTMCPRP	-0.0814
RRIRQRPPRLPRPRPRPTMKPRP	-0.314
RRIRQRPPRLPRPRPRPTMPPRP	0.2
RRIRQRPPRLPRPRPRPTNAPRP	-0.309
RRIRQRPPRLPRPRPRPTNIPRP	-0.122

Sequence	shrunken log2 fold change
RRIRQRPPRLPRPRPRPTPLPRP	0.487
RRIRQRPPRLPRPRPRPTSWPRP	-0.00172
RRIRQRPPRLPRPRPRPTTSPRP	0.1
RRIRQRPPRLPRPRPRPTWAPRP	0.586
RRIRQRPPRLPRPRPRPTWMPRP	-0.262
RRIRQRPPRLPRPRPRPTYMPRP	-0.106
RRIRQRPPRLPRPRPRPVAPPRP	0.357
RRIRQRPPRLPRPRPRPVDTPRP	-0.183
RRIRQRPPRLPRPRPRPVDVPRP	-0.208
RRIRQRPPRLPRPRPRPVEFPRP	0.0188
RRIRQRPPRLPRPRPRPVEIPRP	-0.0298
RRIRQRPPRLPRPRPRPVEKPRP	0.0119
RRIRQRPPRLPRPRPRPVFDPRP	-0.446
RRIRQRPPRLPRPRPRPVGGPRP	2.52
RRIRQRPPRLPRPRPRPVGIPRP	-0.0511
RRIRQRPPRLPRPRPRPVHSPRP	-0.0049
RRIRQRPPRLPRPRPRPVIKPRP	-0.772
RRIRQRPPRLPRPRPRPVIQPRP	-0.065
RRIRQRPPRLPRPRPRPVIRPRP	-0.406
RRIRQRPPRLPRPRPRPVIVPRP	-0.0674
RRIRQRPPRLPRPRPRPVKGPRP	-0.0475
RRIRQRPPRLPRPRPRPVLPPRP	0.0127
RRIRQRPPRLPRPRPRPVNVPRP	0.0398
RRIRQRPPRLPRPRPRPVPEPRP	0.203
RRIRQRPPRLPRPRPRPVPGPRP	-0.141

Sequence	shrunken log2 fold change
RRIRQRPPRLPRPRPRPVPHPRP	-0.0417
RRIRQRPPRLPRPRPRPVRCPRP	0.841
RRIRQRPPRLPRPRPRPVRGPRP	1.97
RRIRQRPPRLPRPRPRPVSHPRP	-0.0425
RRIRQRPPRLPRPRPRPVTSPRP	-0.0277
RRIRQRPPRLPRPRPRPVVEPRP	0.0249
RRIRQRPPRLPRPRPRPVVPPRP	-0.0392
RRIRQRPPRLPRPRPRPVWEPRP	0.0571
RRIRQRPPRLPRPRPRPVWMPRP	-0.00887
RRIRQRPPRLPRPRPRPVYLPRP	-0.206
RRIRQRPPRLPRPRPRPVYYPRP	0.0771
RRIRQRPPRLPRPRPRPWAEPRP	-0.0482
RRIRQRPPRLPRPRPRPWAGPRP	0.0868
RRIRQRPPRLPRPRPRPWCPPRP	-0.261
RRIRQRPPRLPRPRPRPWDAPRP	-0.0479
RRIRQRPPRLPRPRPRPWDTPRP	0.14
RRIRQRPPRLPRPRPRPWFNPRP	-0.359
RRIRQRPPRLPRPRPRPWFPPRP	-0.156
RRIRQRPPRLPRPRPRPWGHPRP	-0.0609
RRIRQRPPRLPRPRPRPWGVPRP	0.122
RRIRQRPPRLPRPRPRPWIQPRP	-0.251
RRIRQRPPRLPRPRPRPWLRPRP	-0.112
RRIRQRPPRLPRPRPRPWMHPRP	0.0573
RRIRQRPPRLPRPRPRPWMLPRP	-0.267
RRIRQRPPRLPRPRPRPWMWPRP	-0.457
